The values that follow come from article PMC13147308, “Investigating the molecular mechanisms underlying the anti‐CRISPR function of AcrIIA13b protein”.

The target in this data set is T1, AcrIIA13b (shAcrIIA13b) (Staphylococcus haemolyticus, UniProt A0AAX7FLQ9 1-129).
T1 sequence: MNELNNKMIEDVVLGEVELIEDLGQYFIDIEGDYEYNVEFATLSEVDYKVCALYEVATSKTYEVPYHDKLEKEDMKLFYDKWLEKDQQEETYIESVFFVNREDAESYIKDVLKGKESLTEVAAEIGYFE
The data set is described as follows: EMSA; no Cas9; Cas9 EMSA: 100 mM NaCl, 50 mM Tris/HCl pH 8.0, 100 ug/mL BSA, 37 C (AcrIIA13b step at RT); 99 nM SauCas9, 90 nM sgRNA, 1.4 nM DNA, 4% gel 0.5x TBE. The note with it: protein: recombinant; tags: C-terminal His6 (pET21a); a tag-free version also exists; chain copies: 2; label: none (SYBR Gold stain); single strand, sgRNA hairpins. On the technique in general: Mobility shift assays separate free from complexed probe on a gel.

B1: SauCas9 sgRNA (structured_RNA)
RNA: GCAGCUGAUCAGGAACAGCGGUUUUAGUACUCUGGAAACAGAAUCUACUAAAACAAGGCAAAAUGCCGUGUUUAUCUCGUCAACUUGUUGGCGAGAUUU
As to B1, the binding result is given as “no binding”.
